Assay results published in publication PMC6180346, “Two Faces of CwlM, an Essential PknB Substrate, in Mycobacterium tuberculosis” (Cell Reports, 2018).
Read-outs that look alike come from different tables or passages of the source.

Target: FhaA C-terminal FHA domain (UniProt P71590)

Substance: CwlM 378-392 (from UniProt L7N653)
- binding against the reference (sites T382): gained
- binding against the reference (sites T386): gained
